This is an account of results in the RNAGym collection of RNA variant scans (doi:10.1073/pnas.2313332121).

B1: TPR t1 (parent)
chain: GACCAAUCUGCCCUCAGAGCUCGAGAACAUCUUCGGAUGCAGAGGAGGCAGGCUUCGGUGGCGCGAUAGCGCCAACGUCCUCAACCUCCAAUGCAUCCCACCACAUGAUGAUGCCUGAAGAGCCUUGGUUUUUUG

Variants of B1 are the subject of this data set. Nature of the data set: polymerase ribozyme fitness, log enrichment relative to wild type (log ratio); higher = more active; in vitro selection for triplet polymerase activity. The procedure, abridged:
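To select mutant libraries of each subunit of a heterodimeric triplet polymerase ribozyme, built by PCR and transcribed, each was annealed with a biotinylated primer, partner subunit and triplets, then incubated frozen at −7 °C. Extended constructs were gel-excised, captured on streptavidin beads and amplified by RT-PCR, in one round carried out in triplicate. Illumina sequencing of input and output libraries kept genotypes with ≥10 input reads and ≥1 read per output. Fitness is the base-2 logarithm of genotype enrichment relative to wild-type enrichment, from inverse-variance-weighted replicate averages.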
A43U G110C: the “polymerase ribozyme fitness (log ratio)” value is -5.24.

G44A C72A G117A: the “polymerase ribozyme fitness (log ratio)” value is -2.9.

Consider G44U C123A, for which the “polymerase ribozyme fitness (log ratio)” value stood at 0.184.

As for A43U U96A A121U, the “polymerase ribozyme fitness (log ratio)” value amounted to 0.867.

Regarding G45A G58A A111C A118C, the “polymerase ribozyme fitness (log ratio)” value was -0.455.

Regarding G44U C70A U129A U131A, the “polymerase ribozyme fitness (log ratio)” value was -3.71.

As to G44U G117U, the “polymerase ribozyme fitness (log ratio)” value was -3.54.

Regarding G45U G69A U78A G127C, the “polymerase ribozyme fitness (log ratio)” value is -4.73.

Regarding G45U C53U U130A, the “polymerase ribozyme fitness (log ratio)” value is -1.99.

Consider A43U G48A G71U U112A, for which the “polymerase ribozyme fitness (log ratio)” value was -1.51.

On to G44C G47C G63C C89U U132A, for which the “polymerase ribozyme fitness (log ratio)” value was -4.25.

For G44U G120U, the “polymerase ribozyme fitness (log ratio)” value was -0.505.

Regarding A43U C73U, the “polymerase ribozyme fitness (log ratio)” value is -0.963.

As to A43U C73G, the “polymerase ribozyme fitness (log ratio)” value is -2.69.

Take A43U C73A: the “polymerase ribozyme fitness (log ratio)” value is -1.5.

With G45A A74U U112G, the “polymerase ribozyme fitness (log ratio)” value was -0.353.

Take G44A G57C G61A U112C G120A G127A: the “polymerase ribozyme fitness (log ratio)” value was -1.81.

As to G45U U112A G128C, the “polymerase ribozyme fitness (log ratio)” value was -2.89.

Take G44C G69A U116C C123U: the “polymerase ribozyme fitness (log ratio)” value is -5.92.

For G45A A95C A111U, the “polymerase ribozyme fitness (log ratio)” value was -3.67.

For G44U C70U, the “polymerase ribozyme fitness (log ratio)” value is -2.01.

Turning to G45C A50U, the “polymerase ribozyme fitness (log ratio)” value was -2.42.

Regarding G44U C72G, the “polymerase ribozyme fitness (log ratio)” value is -1.28.

Turning to G45U G63U A84G, the “polymerase ribozyme fitness (log ratio)” value is -3.63.

Regarding G44U G71A U130G, the “polymerase ribozyme fitness (log ratio)” value was -3.31.

Consider G44C C53G C73U C82U C99G C124G, for which the “polymerase ribozyme fitness (log ratio)” value was -7.17.

Regarding G44U G110C, the “polymerase ribozyme fitness (log ratio)” value is -3.92.

On to G44U C73U G113C A121G G128A, for which the “polymerase ribozyme fitness (log ratio)” value was -4.53.

As to A43U C123G G127C, the “polymerase ribozyme fitness (log ratio)” value is -1.59.

With A43U G61C, the “polymerase ribozyme fitness (log ratio)” value was -4.42.

Regarding A43U G61U, the “polymerase ribozyme fitness (log ratio)” value was -2.41.

In the case of G44C C98U, the “polymerase ribozyme fitness (log ratio)” value is -2.37.

G44A G45C: the “polymerase ribozyme fitness (log ratio)” value was -3.88.

Consider A43U A46U G71U U125A U129A, for which the “polymerase ribozyme fitness (log ratio)” value is -4.93.

In the case of G44A G51A C104U C115G A121C C124A, the “polymerase ribozyme fitness (log ratio)” value is -5.73.

Regarding G45A C70U, the “polymerase ribozyme fitness (log ratio)” value was -1.29.

Turning to G44A A50G C72A C73U G110A, the “polymerase ribozyme fitness (log ratio)” value is -4.26.

In the case of G44C C64U A111G U133A, the “polymerase ribozyme fitness (log ratio)” value is -0.585.

Turning to G45U C72U C88U G113U U129A, the “polymerase ribozyme fitness (log ratio)” value is -5.57.

Turning to G45C A100G G120C, the “polymerase ribozyme fitness (log ratio)” value is -3.59.

On to G45A G93U, for which the “polymerase ribozyme fitness (log ratio)” value is -1.91.

In the case of G45A G93C, the “polymerase ribozyme fitness (log ratio)” value is -1.29.

As for G44C C62A G77A U133A, the “polymerase ribozyme fitness (log ratio)” value is -4.24.

For the variant A43U C49U U59C C70U C115U, the “polymerase ribozyme fitness (log ratio)” value was -5.6.

With G45C C102G A121U U126G G128U, the “polymerase ribozyme fitness (log ratio)” value is -4.67.

Regarding G44U G77A C101A, the “polymerase ribozyme fitness (log ratio)” value is -1.37.

In the case of A43U C49A C89U A90C U133G, the “polymerase ribozyme fitness (log ratio)” value is -1.26.

Take G44U G63C C72U A111U: the “polymerase ribozyme fitness (log ratio)” value was -5.44.

For the variant G45U C72G C89G, the “polymerase ribozyme fitness (log ratio)” value was -3.39.

For A43U G60A, the “polymerase ribozyme fitness (log ratio)” value is -1.98.

On to G45U G60C U125G U133A, for which the “polymerase ribozyme fitness (log ratio)” value is -1.59.

In the case of G45C G57C U59A G120A, the “polymerase ribozyme fitness (log ratio)” value is -0.07.

For G45U C73U C98U A111G U125A, the “polymerase ribozyme fitness (log ratio)” value is -6.59.

As to G44A C101A, the “polymerase ribozyme fitness (log ratio)” value was -2.48.

Consider G44A C101U, for which the “polymerase ribozyme fitness (log ratio)” value is -1.1.

On to G45C U55G G69U G107A, for which the “polymerase ribozyme fitness (log ratio)” value was -5.92.

As to G44A C72G U112G G117A, the “polymerase ribozyme fitness (log ratio)” value is -5.1.

Take A43U C49U G61A G113C C123U: the “polymerase ribozyme fitness (log ratio)” value was -3.66.

G45C G128C: the “polymerase ribozyme fitness (log ratio)” value is -4.18.

Take G44U C73G C102U C124G: the “polymerase ribozyme fitness (log ratio)” value is -1.03.

For the variant G44A G69U U81A, the “polymerase ribozyme fitness (log ratio)” value is -0.353.

Turning to G45U A46U C56A G93A, the “polymerase ribozyme fitness (log ratio)” value is -4.

Regarding G45A C79A G113U A118G, the “polymerase ribozyme fitness (log ratio)” value is -7.04.

For the variant G44U U78C A108G, the “polymerase ribozyme fitness (log ratio)” value is -4.95.

Regarding A43U U55A G127A, the “polymerase ribozyme fitness (log ratio)” value is -3.12.

With G44C C56U C88U C101U G110U, the “polymerase ribozyme fitness (log ratio)” value is -3.38.

For G44A G52C G58A G120A, the “polymerase ribozyme fitness (log ratio)” value is -1.3.

On to G45A C49A, for which the “polymerase ribozyme fitness (log ratio)” value is -0.473.

For the variant G45A G61C U81G, the “polymerase ribozyme fitness (log ratio)” value was -6.11.

As for G44A G93U C124G, the “polymerase ribozyme fitness (log ratio)” value is 0.0379.

A43U G63U U134G: the “polymerase ribozyme fitness (log ratio)” value was -3.02.

Consider G44C G51U G60U C123U, for which the “polymerase ribozyme fitness (log ratio)” value was -2.6.

Regarding A43U G120A G127A U129C, the “polymerase ribozyme fitness (log ratio)” value was -3.11.

Consider A43U C56A C115U, for which the “polymerase ribozyme fitness (log ratio)” value is -2.52.

In the case of G44U U54A U55C, the “polymerase ribozyme fitness (log ratio)” value was -2.01.

As to G44A G61C, the “polymerase ribozyme fitness (log ratio)” value was -3.11.

Take G45A U106A A111G: the “polymerase ribozyme fitness (log ratio)” value is -1.55.

Consider A43G U92C, for which the “polymerase ribozyme fitness (log ratio)” value was -3.

Consider G44U G71C, for which the “polymerase ribozyme fitness (log ratio)” value was -2.58.

On to G44A C49U U106C, for which the “polymerase ribozyme fitness (log ratio)” value is -2.86.

With G44A G52U, the “polymerase ribozyme fitness (log ratio)” value is -2.04.

As for G45C A84G U87G, the “polymerase ribozyme fitness (log ratio)” value was -3.02.

In the case of G45U G117C, the “polymerase ribozyme fitness (log ratio)” value is -4.15.

For the variant G44C C94U, the “polymerase ribozyme fitness (log ratio)” value is -1.02.
